Test results as given in the Immune Epitope Database (IEDB).

How the values were obtained:
[1] = target: HLA-B*18:01; assay: IEDB peptide-MHC binding, purified MHC/direct/fluorescence; filed as Kd, often an IC50 or EC50 that approximates it; ≥ and ≤ were set here for values at or beyond the usual limits of such assays
[2] = target: HLA-B*44:02; assay: as above
[3] = target: HLA-B*44:03; assay: IEDB peptide-MHC binding, purified MHC/competitive/radioactivity; filed as Kd, often an IC50 or EC50 that approximates it; ≥ and ≤ were set here for values at or beyond the usual limits of such assays; settings: source organism: Dengue virus 1 Brazil/97-11/1997
[4] = target: HLA-B*51:01; assay: as above
[5] = target: HLA-A*01:01; assay: as above
[6] = target: HLA-A*23:01; assay: as above
[7] = target: HLA-A*24:02; assay: as above
[8] = target: HLA-A*26:01; assay: as above
[9] = target: HLA-A*29:02; assay: as above
[10] = target: HLA-A*30:01; assay: as above
[11] = target: HLA-A*30:02; assay: as above
[12] = target: HLA-A*32:01; assay: as above
[13] = target: HLA-A*68:02; assay: as above
[14] = target: HLA-B*40:01; assay: IEDB peptide-MHC binding, purified MHC/direct/fluorescence; filed as Kd, often an IC50 or EC50 that approximates it; ≥ and ≤ were set here for values at or beyond the usual limits of such assays
[15] = target: HLA-A*03:01; assay: IEDB peptide-MHC binding, purified MHC/competitive/radioactivity; filed as Kd, often an IC50 or EC50 that approximates it; ≥ and ≤ were set here for values at or beyond the usual limits of such assays
[16] = target: HLA-A*31:01; assay: as above; settings: source organism: Mammarenavirus choriomeningitidis
[17] = target: HLA-A*33:01; assay: as above; settings: source organism: Mammarenavirus choriomeningitidis
[18] = target: HLA-A*68:01; assay: as above; settings: source organism: Mammarenavirus choriomeningitidis
[19] = target: HLA-B*53:01; assay: as above
[20] = target: HLA-A*11:01; assay: as above; settings: source organism: Dengue virus 2 Jamaica/1409/1983
[21] = target: HLA-A*02:01; assay: IEDB peptide-MHC binding, purified MHC/direct/fluorescence; filed as Kd, often an IC50 or EC50 that approximates it; ≥ and ≤ were set here for values at or beyond the usual limits of such assays; settings: source organism: SARS-CoV1
[22] = target: HLA-A*31:01; assay: as above; settings: source organism: SARS-CoV1
[23] = target: HLA-B*08:01; assay: as above
[24] = target: HLA-B*15:01; assay: as above; settings: source organism: SARS-CoV1
[25] = source organism: Dengue virus 1 Singapore/S275/1990
[26] = source organism: Dengue virus 2 Jamaica/1409/1983
[27] = source organism: Lymphocytic choriomeningitis virus (strain Armstrong)
[28] = source organism: Dengue virus 3 Martinique/1243/1999
[29] = source organism: Orthohantavirus hantanense
[30] = source organism: Mammarenavirus tacaribeense
[31] = source organism: Vaccinia virus WR
[32] = source organism: Mammarenavirus juninense
[33] = source organism: Mammarenavirus choriomeningitidis
[34] = source organism: Dengue virus 4 Philippines/H241/1956
[35] = source organism: Influenza A virus (A/Duck/Shantou/2144/00(H9N2))
[36] = source organism: Lassa virus Josiah
[37] = source organism: Dengue virus 2 Peru/IQT2913/1996

LEFFLMVLL
Kd [1, 25]: 189 nM
Kd [2, 25]: ≥ 20000 nM
Kd [3]: 15600 nM

KPWDVVPMV
Kd [4, 26]: 1440 nM

GPDIYKGVY
Kd [5, 27]: ≥ 32200 nM
Kd [6, 27]: ≥ 77700 nM
Kd [7, 27]: ≥ 77500 nM
Kd [8, 27]: ≥ 77900 nM
Kd [9, 27]: 2470 nM
Kd [10, 27]: ≥ 66200 nM
Kd [11, 27]: 1820 nM
Kd [12, 27]: ≥ 77800 nM

TVAWRTATLI
Kd [13, 28]: 61.5 nM

GIFMTATPPG
Kd [10, 26]: 1220 nM

AEAAGCSMI
Kd [1, 29]: ≥ 20000 nM
Kd [14, 29]: 4.5 nM

ASRRSWPLN
Kd ([10]; source organism: Dengue virus 4 Dominica/814669/1981): 50.2 nM

FVAAALHNV
Kd [5, 30]: ≥ 20500 nM
Kd [8, 30]: 2540 nM
Kd [9, 30]: 13500 nM
Kd [10, 30]: 6100 nM
Kd [11, 30]: ≥ 76900 nM
Kd [12, 30]: ≥ 77800 nM

RADRVIDPRR
Kd ([10]; source organism: Dengue virus 1 Brazil/97-11/1997): 1930 nM

KYSRSKPAA
Kd [10, 31]: 5.71 nM

ASAHVRQSEY
Kd [5, 32]: 4.53 nM
Kd [8, 32]: ≥ 24700 nM
Kd [9, 32]: 102 nM
Kd [10, 32]: 2730 nM
Kd [11, 32]: 5.79 nM
Kd [12, 32]: 827 nM

LVSFLLLAGR
Kd [15, 33]: 803 nM
Kd [10, 33]: 9510 nM
Kd [16]: 9.28 nM
Kd [17]: 151 nM
Kd [18]: 36.4 nM

LVMLLVHYA
Kd [13, 34]: 369 nM

NPHLPEKKI
Kd [4, 28]: ≥ 28800 nM

SPCKIPFEI
Kd [4, 26]: ≥ 47700 nM
Kd [19, 26]: 1280 nM

ITVSGLYPLA
Kd [10, 34]: 462 nM

ELCAEAEEL
Kd ([13]; source organism: Homo sapiens): 1060 nM

GEETIEERF
Kd [1, 35]: 3380 nM
Kd [14, 35]: 134 nM
Kd [2, 35]: ≥ 20000 nM

KITAEWLWK
Kd [15, 26]: 99.4 nM
Kd [20]: 1440 nM
Kd [10, 26]: 536 nM

TTRNGEPHM
Kd [10, 26]: 1200 nM

KNKIPFLLL
Kd [10, 31]: 92.4 nM

KLFIRQEEV
Kd [21]: 400 nM
Kd [22]: 130 nM
Kd ([23]; source organism: SARS-CoV1): 2850 nM
Kd [24]: 14900 nM

YLKAKREKL
Kd ([23]; source organism: Coxiella burnetii Q321): 143 nM

DCIMTSYQYL
Kd [5, 36]: 3860 nM
Kd [6, 36]: 5330 nM
Kd [7, 36]: 2310 nM
Kd [8, 36]: 12600 nM
Kd [9, 36]: 14200 nM
Kd [10, 36]: 4430 nM
Kd [11, 36]: 10400 nM
Kd [12, 36]: 3040 nM

ETWMSSEGA
Kd [13, 26]: 2.86 nM

QPESNILDI
Kd [4, 37]: ≥ 46400 nM
Kd [19, 37]: 1010 nM
